Values quoted from earlier work, collected in publication PMC6272133.

Biological target: LLT1 (Homo sapiens) (UniProt Q9UHP7)
Assay: SPR

Chain of UniProt Q9UHP7 (Q9UHP7 60-191): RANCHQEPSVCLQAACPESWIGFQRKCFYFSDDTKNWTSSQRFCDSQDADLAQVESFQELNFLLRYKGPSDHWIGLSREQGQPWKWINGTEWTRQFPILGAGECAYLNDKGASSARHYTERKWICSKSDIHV

For NKRP1A ECD (from UniProt Q12918), the Kd is given as 48 µM.
